Laboratory results: patent US20090169552A1 (FRED HUTCHINSON CANCER RESEARCH CENTER, published 2009)
Each block holds one binder with its values, some of them ahead of it.

B4: MICA tetramer (recombinant MICA*001, residues 1-276, produced in transfected 293T cells, biotinylated and conjugated with PE-streptavidin) (ligand)
chain: EPHSLRYNLTVLSWDGSVQSGFLTEVHLDGQPFLRCDRQKCRAKPQGQWAEDVLGNKTWDRETRDLTGNGKDLRMTLAHIKDQKEGLHSLQEIRVCEIHEDNSTRSSQHFYYDGELFLSQNLETKEWTMPQSSRAQTLAMNVRNFLKEDAMKTKTHYHAMHADCLQELRRYLKSGVVLRRTVPPMVNVTRSEASEGNITVTCRASGFYPWNITLSWRQDGVSLSHDTQQWGDVLPDGNGTYQTWVATRICQGEEQRFTCYMEHSGNHSTHPVPSGK
modifications: glycosylated (secreted by 293T cells); BirA enzymatic biotinylation, conjugated with phycoerythrin (PE)-streptavidin
notes: Residues 1-276 probably count on the mature protein; also called MICA tetramers; PE-MICA tetramer

Columns and labels:
[1] = target: B4; assay: flow cytometry, tetramer staining of NKL cells
Excerpt: Early studies of NKG2D interactions with its ligands utilized randomly oligomerized recombinant MICA (rMICA) or ULBP family ligands produced as immunoglobulin fusion proteins, all of which bound exclusively to NKG2D expressing lymphocytes (Bauer et al., 1999; Cosman et al., 2001). Testing MICA and ULBP2 tetramers, the inventors confirmed that these high avidity reagents stained the NKL NK cell line and that binding was entirely accounted for by NKG2D (FIG. 1A). However, in the course of screening ˜40 cell lines by flow cytometry, the inventors observed that MICA, but not ULBP2, tetramers stained cell types lacking NKG2D. The highest fluorescence intensities were recorded with U266 myeloma cells and all of 10 epithelial tumor lines tested and correlated with relatively large amounts of cell surface MICA. Only monocytic U937 cells were identified as negative for tetramer binding (FIG. 1A). The MICA tetramers were prepared using glycosylated protein secreted by transfected 293T cells. However, tetramer binding was not reduced after cleavage of cell surface polypeptide-linked carbohydrates but was inhibited in the presence of unglycosylated rMICA (FIG. 1A).

[2] = target: T1, Siderocalin, expressed in bacteria, P80188
T1 chain: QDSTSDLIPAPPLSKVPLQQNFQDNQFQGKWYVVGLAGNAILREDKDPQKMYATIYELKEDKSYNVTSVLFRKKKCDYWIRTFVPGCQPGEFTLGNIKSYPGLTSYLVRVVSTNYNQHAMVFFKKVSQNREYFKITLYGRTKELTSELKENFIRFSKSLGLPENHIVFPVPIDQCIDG

[3] = target: T2, C39S mutant of ERp5 fragment 1-118 (Homo sapiens (Human), UniProt Q15084 20-137, C39S); assay: purified proteins mixed, non-reducing SDS-PAGE
T2 construct: Position 39 counts on the mature protein; not shown: N-terminal hexahistidine tract
T2 sequence: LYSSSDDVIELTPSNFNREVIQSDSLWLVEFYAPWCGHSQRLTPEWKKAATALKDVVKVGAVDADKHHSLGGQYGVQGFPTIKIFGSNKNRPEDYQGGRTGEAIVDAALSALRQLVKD
Excerpt: ERp5 activity assays. Ectodomain-only MICA, Siderocalin, and CD94-NKG2A were expressed in bacteria and purified as described (Li et al., 2001). […] All ERp5 sequences were fused to N-terminal hexahistidine tracts and included a C-terminal stop codon to prevent expression of the adjacent hexahistidine in pET22(b). Recombinant proteins were purified by metal affinity (BD Talon, Clontech) and size exclusion chromatography (Superdex 200, Pharmacia).

[4] = target: T3, ERp5 (endoplasmic reticulum protein 5) on the cell surface (Homo sapiens (Human), UniProt Q15084 20-440); assay: flow cytometry of freshly isolated tumor cells
T3 construct: Also stands for the native 50 kD ERp5 solubilised from U266 outer cell membranes in the MICA bead purification; also called surface ERp5; disulfide isomerase-related protein P5
T3 sequence: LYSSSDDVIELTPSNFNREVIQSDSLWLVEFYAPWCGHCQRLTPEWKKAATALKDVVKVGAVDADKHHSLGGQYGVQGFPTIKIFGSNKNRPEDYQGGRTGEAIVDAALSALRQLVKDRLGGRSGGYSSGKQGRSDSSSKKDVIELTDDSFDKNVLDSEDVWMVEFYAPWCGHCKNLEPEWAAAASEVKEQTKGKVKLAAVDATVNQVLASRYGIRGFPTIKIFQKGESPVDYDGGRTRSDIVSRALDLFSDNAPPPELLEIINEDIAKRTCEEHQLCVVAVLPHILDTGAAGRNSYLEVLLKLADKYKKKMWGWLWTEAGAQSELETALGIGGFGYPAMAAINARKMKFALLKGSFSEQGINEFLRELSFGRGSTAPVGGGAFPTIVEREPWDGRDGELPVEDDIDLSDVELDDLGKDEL

B2: recombinant ERp5 (residues 1-421 of the mature protein), bacterially produced, N-terminal hexahistidine (protein)
chain: LYSSSDDVIELTPSNFNREVIQSDSLWLVEFYAPWCGHCQRLTPEWKKAATALKDVVKVGAVDADKHHSLGGQYGVQGFPTIKIFGSNKNRPEDYQGGRTGEAIVDAALSALRQLVKDRLGGRSGGYSSGKQGRSDSSSKKDVIELTDDSFDKNVLDSEDVWMVEFYAPWCGHCKNLEPEWAAAASEVKEQTKGKVKLAAVDATVNQVLASRYGIRGFPTIKIFQKGESPVDYDGGRTRSDIVSRALDLFSDNAPPPELLEIINEDIAKRTCEEHQLCVVAVLPHILDTGAAGRNSYLEVLLKLADKYKKKMWGWLWTEAGAQSELETALGIGGFGYPAMAAINARKMKFALLKGSFSEQGINEFLRELSFGRGSTAPVGGGAFPTIVEREPWDGRDGELPVEDDIDLSDVELDDLGKDEL
disulfide bond reduction, non-reducing gel electrophoresis [2]: ERp5 did not affect unrelated proteins with relatively accessible intrachain (Siderocalin) or intrachain and interchain (CD94-NKG2A) disulfide bonds

Binder: B4
binding result [4]: binds

More lines, now with the values ahead:

binding result [1]: binds
B1: NKG2D on NKL NK cells (receptor, human, UniProt P26718 1-216, looked up)
chain: MGWIRGRRSRHSWEMSEFHNYNLDLKKSDFSTRWQKQRCPVVKSKCRENASPFFFCCFIAVAMGIRFIIMVTIWSAVFLNSLFNQEVQIPLTESYCGPCPKNWICYKNNCYQFFDESKNWYESQASCMSQNASLLKVYSKEDQDLLKLVKSYHWMGLVHIPTNGSWQWEDGSILSPNLLTIIEMQKGDCALYASSFKGYIENCSTPNTYICMQRTV
notes: whole, on cells; On cells paired with DAP10 according to the description; also called KLRK1

binding result [3]: binds
B3: isolated MICA α3 domain (residues 187-274), expressed in bacteria (ligand)
chain: NVTRSEASEGNITVTCRASGFYPWNITLSWRQDGVSLSHDTQQWGDVLPDGNGTYQTWVATRICQGEEQRFTCYMEHSGNHSTHPVPS
notes: Numbering probably of the mature protein (Li et al., 1999); also called α3 membrane-proximal domain
